According to patent US20160200799A1:

B1: Group 57 representative clone F083-103, Fab-PP-type antibody (Fab, V domains shown)
VH: QVQLQQSGADVKKAGSSVKVSCKASGRTFGNYAISWVRQAPGQGLEWMGGITPIFGAANYAQKFQGRVTISADLSTRMVYMDLSSLRSDDTAFYYCAGHPTYHYGSAMDYWGQGTLVTVSS
VL: QSVLTQPPSVSAAPGQKVTITCSGSSSNIGNNYVSWYQQLPGTAPKLLISEGSNRPSGIPDRFSGSKSGTSATLGITGLQTGDEATYYCATWDDSLSVVLFGGGTRLTVLS
B2: Group 58 representative clone F083-307, Fab-PP-type antibody (Fab, V domains shown)
VH: QVQLQQSGADVKKPGSSVKVSCKASGGTFGNYAISWVRQAPGQGLEWMGGITPIFGPANYAQRFQGRVTISADISTRTAYMELSSLRSEDTAIYYCARHPTYYFGSAMEYWGQGTLVTVSS
VL: SYELTQPPSVSVAPGQTATITCGGDRIGTGPVHWYQQRPGRAPVLIIYGSTHRPSGIPERFSGSKSVNTATLSISGVGVGDEADYYCQVWDTSTAQPIVFGGGTKLTVLS
B3: Group 80 representative clone F083-373, Fab-PP-type antibody (Fab, V domains shown)
VH: QVQLVQSGADVKKPGSSVRVSCKASGRTFGNYAISWVRQAPGQGLEWMGGITPIFGAANYAQKFQGRVTISADLSTTMVYMDLSSLRSDDTAFYYCAGHPTYYYGSPMDYWGQGTLVTVSS
VL: EIVLTQSPSSLSASVGDRVTITCRASQSIATYLNWYQQKPGKAPNLLIYAASNLQSGVPSRFSGSGSGTDFTLTISSLQPEDFATYVCLQSYSATLTFGGGTKVEIK
B4: Group 59 representative clone F083-351, Fab-PP-type antibody (Fab, V domains shown)
VH: QVQLVQSGADVKKAGSSVKVSCKASGRTFGNYAISWVRQAPGQGLEWMGGITPIFGAANYAQKFQGRVTISADLSTRMVYMDLSSLRSDDTAFYYCAGHPMYHYGSAMDYWGQGTLVTVSS
VL: QSVLTQPPSASGTPGQRVSISCFGSRSNVGSSSVNWYQQLPGRAPKLLIQRNDQRPSGVPDRFSGSKSGTSASLAISGLQSDDESTYYCAAWDDSVKSVVFGGGTQLTVLG
B5: Group 51 representative clone F083-302, Fab-PP-type antibody (Fab, V domains shown)
VH: QVQLVQSGAEVKKPGSSVKVSCEASGATFSSNAFSWVRQAPGQGPEWMGGIITMFRKAEYAQKFQGRVTITAGELGSTAYMEVRSLTFEDTAVYYCARHSGYHLIGYFDSWGQGTLVTVSS
VL: QSVLTQPPSVSAAPGQKVTISCSGTTSNIGNNYVSWYQQLPGAAPKLLIYDNNKRPSGIPDRFSGSKSDTSATLGITGLQTGDEADYYCGTWVSSLSVWVFGGGTKLTVLG
B6: Group 62 representative clone F083-349, Fab-PP-type antibody (Fab, V domains shown)
VH: QVQLVQSGAEVRKPGSSVKVSCKASGVIFIKFAISWVRQAPGQGLEWMGGIIPMFGTTNYAQKFQGRVTITADGSTNTVYMELSSLTSEDTAVYYCAKEEGYYYGSGPLDSWGQGTLVTVSS
VL: DIVMTQSPDFLSVSLGERVTINCKSSQTVLNRSNNKNYLAWYQKKPGQPPRLLLYWSSTRESGVPDRFSGSGSETDFALTITNLQAEDLAVYFCQQFYDMPVTFGGGTKLEIK
B7: Group 63 representative clone F083-336, Fab-PP-type antibody (Fab, V domains shown)
VH: QVQLQQSGAEVKQPGSSVKVSCKASGGIFRSNAISWVRQAPGQGLEWMGGIVALFGTANYAQKFQGRVTITADESTSTVYMELSSLRSEDTARYYCARNSGYHISGFYLDYWGQGTLVTVSS
VL: EIVLTQSPSSLSASVGDRVTITCRASQGISNYLAWYQQRPGKVPKLLIYTASTLLSGVPSRFSGGGSGTDYTLTISSLQPEDVATYYCQEYKSVPLTFGPGTKVEIK
B8: Group 38 representative clone F082-338, Fab-PP-type antibody (Fab, V domains shown)
VH: QVQLQESGAEVKKPGSSVKVSCKASGGPFRSHAISWVRQAAGQGLEWMGGITAVFGTANYAQKFQGRVTITADESTNIVSMELSSLRSEDTAIYYCARSLGYHTQYNGMDVWGQGTTVTVSS
VL: DVVMTQSPSSVSASVGDRVTITCRASQGISSWLAWYQQKPGKAPKLLIYAASSLQSGVPSRFSGSGSGTDFTLTISSLQPEDFATYYCQQANSFPITFGQGTRLEIK
B9: Group 43 representative clone F081-007, Fab-PP-type antibody (Fab, V domains shown)
VH: QVQLQQSGAEVKKPGSSVKVSCKASGGIFRKNAISWVRQAPGQGLEWMGGISAIFGTANYAQKFQGRVTITADESSNTVYMDLSRLRSEDTAIYYCASHPTYHFDKSGYRFDSWGQGTLVTVSS
VL: QSVLTQPPSVSAAPGQKVTISCSGSSSNIGNNYVSWYQQLPGTAPKLLIYDNNKRPSGIPDRFSGSKSGTSATLGITGLQTGDEADYYCGTWDSSLSAGVFGGGTKLTVLG
B10: Group 64 representative clone F083-301, Fab-PP-type antibody (Fab, V domains shown)
VH: QVQLVQSGAEVKKPGSSVKVSCKASGGIFNSNAISWVRQAPGQGLEWMGGIIGIFGTANYAQKFQGRVTIAADQSTNTVFMELSSLTSEDTAVYFCARSRGYSFGYGTDYFDYWGQGTLVTVSS
VL: DIVMTQSPSTLSASVGDRVTITCRASQSISSWLAWYQQAPGKAPKLLIYEASKLQSGVPSRFSATGSGTEFTLTIASLQPEDFAIYYCQHYEAYPFSFGPGTKLDVK
B11: Group 65 representative clone F083-366, Fab-PP-type antibody (Fab, V domains shown)
VH: QVQLVQSGSEVKKPGSSVKVSCKASRGIFSSYAISWVRQAPGQGLEWMGAVIPMFGTLKYAENFQGRITISADKSMSAAYMELSSLRSEDTAVYYCARNYYGSGTYFNDAFDIWGQGTMVTVSS
VL: QSVLTQPPSGSGAPGQRVTISCTGGNSNIGAGYDVNGYQQLPGKAPKLLIYGNNNRPSGVPDRFSGSKSGTSASLAITGLQVEDEAHYYCQSYDNGLSGSVFGGGTQLTVLG
B12: Group 44 representative clone F081-008, Fab-PP-type antibody (Fab, V domains shown)
VH: QVQLVQSGAEVKKPGSSVKVSCKASGGTFSSFSTYTISWVRQAPGQGLEWMGRSIPLLGITNYAQKFQGRVTITADISTSTAYMELSSLRSEDTAVYYCARYQSSDYYNSEYFQHWGQGTLVTVSS
VL: EIVLTQSPGTLSLSLGERVTLSCRASQNVGTNYLAWYQQKPGQAPRLLIYGASSRATGVPDRFSGSGSGTDFTLTISRLAPEDFAVYYCQQYSSSPLTFGGGTKLEIK

Experiments:
Test in all cases: cell-based or functional assay
[1] = biological target: Influenza virus A/Indonesia/5/2005/PR8-IBCDC-RG2 (H5N1) (Influenza A virus A/Indonesia/5/2005/PR8-IBCDC-RG2 (H5N1))
[2] = biological target: Influenza virus A/Suita/1/2009pdm (H1N1 2009 pandemic) (Influenza A virus A/Suita/1/2009pdm (H1N1pdm))
[3] = biological target: Influenza virus A/Panama/2007/1999 (H3N2) (Influenza A virus A/Panama/2007/1999 (H3N2))
[4] = biological target: Influenza virus A/California/7/2009pdm (H1N1pdm) (Influenza A virus A/California/7/2009pdm (H1N1pdm))
[5] = biological target: Influenza virus A/Brisbane/59/2007 (H1N1) (Influenza A virus A/Brisbane/59/2007 (H1N1))

Binder | Neutralizing activity (%) at 100 µg/ml [1] | Neutralizing activity (%) at 250 µg/ml [1] | Neutralizing activity (%) at 100 µg/ml [2] | Neutralizing activity (%) at 250 µg/ml [2] | Neutralizing activity (%) at 100 µg/ml [3] | Neutralizing activity (%) at 250 µg/ml [3] | HI activity [4] | HI activity [5] | Neutralizing activity (%) at 100 µg/ml [5] | Neutralizing activity (%) at 250 µg/ml [5]
B1 | 30% | 61.2% | 60.2% | 83.8% | 11% | 13.7% | > 160 µg/mL | > 160 µg/mL | 84.2% | 92.1%
B2 | 28.8% | 31.8% | 76.6% | 54.8% | -6.8% | 11.6% | > 160 µg/mL | > 160 µg/mL | 100% | 100%
B3 | -3.3% | 15.4% | 1.9% | 7.7% | -6.9% | -21.2% | > 160 µg/mL | > 160 µg/mL | 70.4% | 74.3%
B4 | -2.7% | 5.4% | 88.5% | 85.6% | -6.8% | -6.6% | > 160 µg/mL | > 160 µg/mL | 100% | 100%
B5 | 72.9% | 85.9% | 100% | 100% | 3.4% | -11% | > 160 µg/mL | > 160 µg/mL | 98% | 98%
B6 | 40.2% | 83.9% | 97.1% | 91.3% | 13.7% | -8.9% | > 160 µg/mL | > 160 µg/mL | 92.1% | 92.1%
B7 | 98.8% | 100% | 100% | 100% | -11% | -8.9% | > 160 µg/mL | > 160 µg/mL | 100% | 100%
B8 | 67.1% | 85.3% | 100% | 97.7% | -2.7% | -0.7% | > 160 µg/mL | > 160 µg/mL | 100% | 100%
B9 | 97.6% | 98.8% | 100% | 100% | 11.6% | 13.7% | > 160 µg/mL | > 160 µg/mL | 100% | 100%
B10 | 40.6% | 47.1% | 83.6% | 81.3% | -2.7% | 7.5% | > 160 µg/mL | > 160 µg/mL | 86.2% | 92.1%
B11 | -0.8% | -3.9% | 13.5% | 19.2% | -13% | -6.8% | > 160 µg/mL | > 160 µg/mL | 96.1% | 98%
B12 | 48.8% | 56.5% | 95.3% | 97.7% | 3.4% | 15.8% | > 160 µg/mL | > 160 µg/mL | 100% | 100%
